The chains are these.
B1: TPR 5TU (parent)
chain: GGAUCUUCUCGAUCUAACAAAAAAGACAAAUCUGCCACAAAGCUUGAGAGCAUCUUCGGAUGCAGAGGCGGCAGCCUUCGGUGGCGCGAUAGCGCCAACGUUCUCAACUAUGACACGCAAAACGCGUGCUCCGUUGAAUGGAGUUUAUCAUG

Variants at the floor of the assay were thinned out.

Variants of B1 are the subject of this data set. In words: polymerase ribozyme fitness, log enrichment relative to wild type (log ratio); higher = more active; in vitro selection for triplet polymerase activity. The essentials: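 PCR was used to build mutant libraries for each subunit of a heterodimeric triplet polymerase ribozyme, which were then transcribed. A single in vitro selection round, in triplicate, used a frozen incubation at −7 °C and recovered extended constructs by gel excision, streptavidin beads and RT-PCR. Fitness is the logarithm of genotype enrichment relative to wild-type enrichment, averaged over replicates with inverse-variance weights. The logarithm is base 2, and after Illumina sequencing only genotypes with ≥10 input reads and ≥1 read per output were kept.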
As for A49C G80U, the “polymerase ribozyme fitness (log ratio)” value was -4.02.
Turning to G94C A138G G141A G143A, the “polymerase ribozyme fitness (log ratio)” value is at most -4.2.
Under C93U C125U U151C G152A stands -3.06; under U44A G94A C116U G152U, -4.16.
Next, A19C G50A: -1.01.
Next, U31C G48A C79A C105U A120G G141U A147C: at most -4.2; A21G A52G C85U U104G: -0.132; C75U: -0.0565.
U55G C116G: the “polymerase ribozyme fitness (log ratio)” value was 0.357.
Next, C43G C54A C93U A107G: at most -4.2; C57A C85U U146C: -0.426; C32A A47C A122G A147C: at most -4.2.
Under C35U C93A C132U A147C stands -4.05.
Under A49C G50C U78C G140C stands at most -4.2.
With C35U U53A G92U C103U C114G A115U A122U, the “polymerase ribozyme fitness (log ratio)” value is at most -4.2.
Under A20U A47G A89U C105U stands -2.65; under A41G C57U U109G A122U, -2.07; under C85U U101C, -0.749.
Under C54A G94C A107C C108G stands at most -4.2.
Take U45A G68C U82G G83C G94A C118U: the “polymerase ribozyme fitness (log ratio)” value was at most -4.2.
Under A41G U45C C57U G92A C108G stands -3.34; under U13G G42A A49G U56A C57A G80A, at most -4.2.
Take U6A A22U C27A C54A C57A C76U U78C C87U G128C A137G G141C: the “polymerase ribozyme fitness (log ratio)” value is at most -4.2.
In the case of G92U A138U, the “polymerase ribozyme fitness (log ratio)” value was -4.2.
Under G94A A97G G124A stands -1.65; under A47U U53A G133C, -2.66.
Next, U6A G50C G86U U102C A121C: at most -4.2; U4A U13C C36U C96G: -2.21; U53A G59A: -0.147.
Under A49G G50C stands -2.28.
Take G46U U55A G84U G126C: the “polymerase ribozyme fitness (log ratio)” value is -1.83.
Under G42A A52C G94U A97G U144A stands at most -4.2; under A19G C85A G86U C93U U148A, at most -4.2; under A47C C79U G83A C87U C99A C103U, -4.14.
Consider C118U U145G, for which the “polymerase ribozyme fitness (log ratio)” value was -1.09.
Next, C14U A37C: -1.79; A97U G141U: 0.189; U7G C125U: -3.39.
Under G140C U148G stands -4.14.
Next, A19U U53A G81U C96A: -2.73; C54A U56A G67U C85A G88A U101G G141C: at most -4.2.
For the variant A97U A119G U130C, the “polymerase ribozyme fitness (log ratio)” value stood at 0.572.
Under C14G A17C A23C A40C G88A G94U C123G U134G G140A stands at most -4.2.
Turning to U4A A66C A89U C93A C125G G143A, the “polymerase ribozyme fitness (log ratio)” value is at most -4.2.
Consider U78A C103G U134A, for which the “polymerase ribozyme fitness (log ratio)” value was at most -4.2.
Under U13G U15A C36A A40C U56A G58A A107U G124U C131A stands at most -4.2; under C35A U55G C57U C93A C96G C118U, at most -4.2.
Under C51A A91G C95U A97G A119U stands at most -4.2; under G34C G42A G86A U148C, at most -4.2; under C99U G140C, -3.43.
Turning to C8U C87G G100C U139C C149G, the “polymerase ribozyme fitness (log ratio)” value was at most -4.2.
Under C36G A40C G42C C54U G68A C118G C131A U135G C149A stands at most -4.2; under A23G G46A C87U C132G, at most -4.2; under A28U C51A C54U C85U C123G C129U, at most -4.2.
Under A52G G65A U145A stands -1.38.
Under A16C G58U U101G C105A U144G stands at most -4.2; under U7C G50A G58A G68A A97C G141C U146A, at most -4.2; under A12U A24G A49C C57U A73G G86U, at most -4.2.
Turning to C87G A115U C116G, the “polymerase ribozyme fitness (log ratio)” value was -3.97.
Under U9C U82A G92U C116U U134G stands at most -4.2; under C93G A138G, at most -4.2; under A122G, -0.303.
Under A16C C38A stands -1.34.
Next, G11U G74A C85A U90C G141A U148C: at most -4.2.
For the variant A19G C27U C35A A73G U77A G80C, the “polymerase ribozyme fitness (log ratio)” value is at most -4.2.
Next, A23C G34U: -3.82.
Under A24U C27A G42C C75A U82G C96U C108A A138C stands at most -4.2; under G58A G59U C87U G136A, 0.169; under C54A A89G U90A C99G, at most -4.2.
G88U C132U: the “polymerase ribozyme fitness (log ratio)” value was -3.92.
On to C27G G50A G58A G83U, for which the “polymerase ribozyme fitness (log ratio)” value is at most -4.2.
As for A19C C57A, the “polymerase ribozyme fitness (log ratio)” value turned out to be 0.797.
As to G25C A28U C54U G83A C99U G124A, the “polymerase ribozyme fitness (log ratio)” value is at most -4.2.
As to C54U U56A G70A C85A G86U C95G, the “polymerase ribozyme fitness (log ratio)” value is at most -4.2.
Next, C14A U53A C87G: at most -4.2; G46A G86A C87G U104G C116U C149U: at most -4.2.
Under C51G stands -1.58.
In the case of C114U A142G, the “polymerase ribozyme fitness (log ratio)” value was -2.95.
Under C38G A47C stands -0.652; under C32G A47G C72A A73C C96A U127C, at most -4.2.
Next, C57A U78G G86C A89U C96U A120U C129G: at most -4.2; G48C A89C: -0.506; A89G A121G C131G: -3.53.
Under G74A C103G stands at most -4.2; under A12G C38U C57G G62A C93A, -2.77; under C14G G50A C54U C93A U139A, at most -4.2.
On to C32A A49U C72A C85A U90G A98G A120C U151A, for which the “polymerase ribozyme fitness (log ratio)” value is at most -4.2.
As to U6G A22U C87U, the “polymerase ribozyme fitness (log ratio)” value came out at 0.101.
Next, C14G C54A C85G U127A: at most -4.2; A40U A147G: -3.6; U13A C85U: -1.16.
Next, C43U C85G G88A C93G A97U C125A C132G G140C: at most -4.2; C87A U90G C99G: at most -4.2; C96U G140U: -3.33.
Next, A20C C51G C95G C149U: at most -4.2; U55G G88U: -4.02; U56G A119C U146G: -1.1.
Regarding C35A C79U C99U C103U, the “polymerase ribozyme fitness (log ratio)” value is at most -4.2.
Next, U7A G42A C85U A113U C116U C125G: at most -4.2; A119U G124U U146A: -0.483.
Under C93G C105U A137G stands -4.06.
Next, A73U C93U A120G: -2.61; A41C U44G G46C G84C C123G G128A U145A: at most -4.2.
In the case of U53A G83U, the “polymerase ribozyme fitness (log ratio)” value is -0.881.
Next, A20C C38G G70A C87U C108U: at most -4.2.
Next, A52G U53A: -0.907; A49U G84A G136U: -3.29.
With C54U C118U U145A, the “polymerase ribozyme fitness (log ratio)” value was -0.457.
Under U56A C85A A91G G128U stands at most -4.2.
As to A24G C27U U31A A47C U77C C85U U102C U144C, the “polymerase ribozyme fitness (log ratio)” value is at most -4.2.
Under G81C G141A stands -1.94.
Under G46C G80C A97C U144G stands at most -4.2; under U9A A12U C32U A37U G92C, at most -4.2.
Under A20U U31C C116U A121U A150C stands -3.57; under A12G C95U C105G A106U, -4.1; under A40U C87G G133U, at most -4.2.
In the case of A24U G34C U56A G84A G133A, the “polymerase ribozyme fitness (log ratio)” value was -3.92.
Under A24U A40G C57A C96A C99U U134A stands at most -4.2; under U56A C95G A98G, -1.91.
As to C35U C95U, the “polymerase ribozyme fitness (log ratio)” value is -1.1.
Under C38A G58A C95G G124C C125U stands -1.11.
On to A20G C38U G88C C96A, for which the “polymerase ribozyme fitness (log ratio)” value was at most -4.2.
Next, A24U G83C C99G: -4.19.
Next, A28U G50A U77C C85A C96G C105G G141A U144C: at most -4.2; G94A G124A U146A: -1.09.
Under C8U U15A A41U C85A G126A stands -4.06.
On to A20U G133C, for which the “polymerase ribozyme fitness (log ratio)” value was -3.79.
Next, U31G A60U: 0.29.
Under A17G U33G G50U A52U G86C C105U A106C C125A stands at most -4.2.
Next, C32G U53G A73C C131A A142G: at most -4.2.
As for A19U C93A, the “polymerase ribozyme fitness (log ratio)” value was -2.7.
In the case of C116A C123U C125U, the “polymerase ribozyme fitness (log ratio)” value was -3.41.
Next, A120U U148G: -3.59.
Next, A24G C35U: -3.09.
Next, A28U U44A U55A U77G A120U: at most -4.2.
Turning to G83A C96U, the “polymerase ribozyme fitness (log ratio)” value was -0.419.
Next, U4G G50C C118U: at most -4.2; C54A C85G G124U: -3.78; C8A A19C C72A C95A C96G C131U G136C: at most -4.2.
Next, A3U A17C C35U G59A C85A: -3.22; C10U A47C: -3.19; C85U A97C G124U: 0.338.
Regarding G80C C87A A89C A97G U102C A137G A138G U151A, the “polymerase ribozyme fitness (log ratio)” value is at most -4.2.
Next, A21G C27G A29C A73C G74U C75G C85U G88A: at most -4.2; G86A G94A A110G: at most -4.2; U4G C87A A98G U130G: at most -4.2.
As for C51U A60G G86A, the “polymerase ribozyme fitness (log ratio)” value was -1.75.
Next, G88U G92C G117U: -3.57; C27A G86A U134A A147G: at most -4.2; C5A A17C G83A G143U: -2.68.
Under C14A C72U stands -1.72; under A12U A24U G81U G84A, 0.337.
For C5G A17U G74A A91G G141U, the “polymerase ribozyme fitness (log ratio)” value is at most -4.2.
Under C57A A73G stands 0.866; under U4A U139C, -4.08; under A12U A29G A37U A47U U55A G84U A89G A120C G140C U144G, at most -4.2.
Next, U15G G92U: -0.561.
As to U15G G59A G88A C132U, the “polymerase ribozyme fitness (log ratio)” value is at most -4.2.
Turning to G58U A66C U77G A91U C96G A97U, the “polymerase ribozyme fitness (log ratio)” value was at most -4.2.
Under G86U A97U stands -1.74; under A30C G74C C75A C76U G84U C87A C116G, at most -4.2; under A12G C27G U55A A110G G143A U145G U148G, at most -4.2.
Next, C8U C32A G58C C93G G94U C95U G117U A138U: at most -4.2; A23C G25A C32A C63U C87A: at most -4.2; A3C U13C A28G C79G G80C G94A G141C: -4.17.
As to A30U C95A, the “polymerase ribozyme fitness (log ratio)” value is -3.34.
Next, A26U G42C C72A C93A C116U: at most -4.2.

Source of the values: the RNAGym collection of RNA variant scans (doi:10.1073/pnas.2313332121).
